Measured values from article PMC8052502, “Enzyme kinetic and binding studies identify determinants of specificity for the immunomodulatory enzyme ScpA, a C5a inactivating bacterial protease” (Computational and Structural Biotechnology Journal, 2012).

Tests used:
[1] = target: recombinant ScpA, residues 31-1032 (active Streptococcal C5a peptidase) (Streptococcus pyogenes) (UniProt P15926)
[2] = target: rhC5a_(K49A) (human); assay: SPR; His-tagged C5a peptide immobilised on NTA sensor chip (30-40 RU), ScpA_(S512A) flowed over; 25 °C; 10 mM Hepes-KOH pH 7.5, 150 mM NaCl, 0.005% Tween 20, 50 μM EDTA; 1:1 Langmuir model with drifting baseline
[3] = target: recombinant human C5a des Arg (rhC5adR), N-ter hexa-histidine tagged (human); assay: as above
[4] = target: rhC5a_(R40A) (human); assay: as above
[5] = target: rhC5a_(core), N-terminal cleavage product (PN) of rhC5a, residues 1-67 (human); assay: as above
[6] = target: rhC5a_(R46A) (human); assay: as above
[7] = target: rhC5a_(K4A,K5A) (human); assay: as above
[8] = target: rhC5a_(R37A) (human); assay: as above
[9] = target: rhC5a_(K12A,K14A) (human); assay: as above
[10] = target: T1, ScpA_(S512A), active site serine to alanine mutant of recombinant Streptococcal C5a peptidase ScpA, residues … (Streptococcus pyogenes, UniProt P15926 31-1032, S512A); assay: ITC; ScpA_(S512A) (18 μM) in the cell titrated with 170 μM rhC5a; 25 °C; 50 mM Hepes-KOH pH 7.5, 150 mM NaCl; one set of sites model; KD^ITC derived from KA; conditions: both partners purified
T1 construct: mimics the form released from the cell surface by SpeB; catalytic residues D130, H193, S512; also called S512A active site mutant of ScpA; source: recombinant, from plasmid pGEX ScpA_((31-1032)) mutated with QuickChange II; purified
T1 sequence: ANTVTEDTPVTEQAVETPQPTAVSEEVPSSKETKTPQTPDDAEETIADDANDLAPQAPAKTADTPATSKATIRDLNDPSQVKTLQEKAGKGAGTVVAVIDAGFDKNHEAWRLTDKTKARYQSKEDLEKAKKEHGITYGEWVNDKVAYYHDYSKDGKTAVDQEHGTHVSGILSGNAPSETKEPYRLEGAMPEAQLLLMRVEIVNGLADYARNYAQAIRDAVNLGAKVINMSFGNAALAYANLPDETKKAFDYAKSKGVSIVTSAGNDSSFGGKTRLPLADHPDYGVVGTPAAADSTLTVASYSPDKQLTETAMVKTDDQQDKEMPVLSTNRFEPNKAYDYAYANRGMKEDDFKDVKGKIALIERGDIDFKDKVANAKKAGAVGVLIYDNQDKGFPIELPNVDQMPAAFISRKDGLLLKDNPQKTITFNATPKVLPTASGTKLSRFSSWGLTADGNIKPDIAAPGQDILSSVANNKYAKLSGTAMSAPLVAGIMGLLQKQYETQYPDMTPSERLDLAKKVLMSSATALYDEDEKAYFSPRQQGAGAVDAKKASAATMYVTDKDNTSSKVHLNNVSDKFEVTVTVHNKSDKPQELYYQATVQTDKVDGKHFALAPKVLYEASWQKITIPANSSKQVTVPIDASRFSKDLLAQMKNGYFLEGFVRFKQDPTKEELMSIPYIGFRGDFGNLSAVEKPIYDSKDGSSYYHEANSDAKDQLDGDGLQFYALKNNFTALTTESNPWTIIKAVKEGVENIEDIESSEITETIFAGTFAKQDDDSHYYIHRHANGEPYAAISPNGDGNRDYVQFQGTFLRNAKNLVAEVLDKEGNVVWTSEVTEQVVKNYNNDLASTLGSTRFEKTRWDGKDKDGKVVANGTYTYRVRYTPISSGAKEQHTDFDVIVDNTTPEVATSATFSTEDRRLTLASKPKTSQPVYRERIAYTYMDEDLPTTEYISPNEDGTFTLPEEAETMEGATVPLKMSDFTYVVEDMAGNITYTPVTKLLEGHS

[11] = target: T1, ScpA_(S512A), active site serine to …; assay: SPR; His-tagged rhC5a immobilised on NTA sensor chip, ScpA_(S512A) flowed over; 25 °C; Hepes buffer with 550 mM NaCl; 1:1 Langmuir model; conditions: both partners purified
[12] = target: T1, ScpA_(S512A), active site serine to …; assay: SPR; His-tagged C5a peptide immobilised on NTA sensor chip (30-40 RU), ScpA_(S512A) flowed over; 25 °C; 10 mM Hepes-KOH pH 7.5, 150 mM NaCl, 0.005% Tween 20, 50 μM EDTA; 1:1 Langmuir model with drifting baseline; conditions: both partners purified
[13] = target: T1, ScpA_(S512A), active site serine to …; assay: SPR; His-tagged rhC5a immobilised on NTA sensor chip, ScpA_(S512A) flowed over; 25 °C; Hepes buffer with 950 mM NaCl; 1:1 Langmuir model; conditions: both partners purified
[14] = target: T1, ScpA_(S512A), active site serine to …; assay: SPR; His-tagged rhC5a immobilised on NTA sensor chip, ScpA_(S512A) flowed over; 25 °C; Hepes buffer with 750 mM NaCl; 1:1 Langmuir model; conditions: both partners purified
[15] = target: T1, ScpA_(S512A), active site serine to …; assay: SPR; His-tagged rhC5a immobilised on NTA sensor chip, ScpA_(S512A) flowed over; 25 °C; Hepes buffer with 350 mM NaCl; 1:1 Langmuir model; conditions: both partners purified
[16] = target: T1, ScpA_(S512A), active site serine to …; assay: SPR; competition in solution: 40 RU HT-rhC5a_(core) immobilised on NTA chip; ScpA_(S512A) (700 nM) pre-incubated with rhC5a-HT (0-2000 nM) 1 hr on ice in SPR running buffer, then injected; Req fitted by the method of Morelock et al. to give KD^Sol; conditions: both partners purified

Q: With “doubly BODIPY labelled His-tagged rhC5aC75 (rhC5aC75-BODIPY) (natural protein)” as the molecule, how does the Km of cleavage of rhC5aC75-BODIPY (16-500 nM) by 180 pM ScpA, fluorescence progress curves, 25 °C, PBS with 0.1% Tween 20 [1] read?
A: 185 nM

B1: ScpA_(S512A), active site serine to alanine mutant of recombinant Streptococcal C5a peptidase ScpA, residues 31-1032 (enzyme)
chain: ANTVTEDTPVTEQAVETPQPTAVSEEVPSSKETKTPQTPDDAEETIADDANDLAPQAPAKTADTPATSKATIRDLNDPSQVKTLQEKAGKGAGTVVAVIDAGFDKNHEAWRLTDKTKARYQSKEDLEKAKKEHGITYGEWVNDKVAYYHDYSKDGKTAVDQEHGTHVSGILSGNAPSETKEPYRLEGAMPEAQLLLMRVEIVNGLADYARNYAQAIRDAVNLGAKVINMSFGNAALAYANLPDETKKAFDYAKSKGVSIVTSAGNDSSFGGKTRLPLADHPDYGVVGTPAAADSTLTVASYSPDKQLTETAMVKTDDQQDKEMPVLSTNRFEPNKAYDYAYANRGMKEDDFKDVKGKIALIERGDIDFKDKVANAKKAGAVGVLIYDNQDKGFPIELPNVDQMPAAFISRKDGLLLKDNPQKTITFNATPKVLPTASGTKLSRFSSWGLTADGNIKPDIAAPGQDILSSVANNKYAKLSGTAMSAPLVAGIMGLLQKQYETQYPDMTPSERLDLAKKVLMSSATALYDEDEKAYFSPRQQGAGAVDAKKASAATMYVTDKDNTSSKVHLNNVSDKFEVTVTVHNKSDKPQELYYQATVQTDKVDGKHFALAPKVLYEASWQKITIPANSSKQVTVPIDASRFSKDLLAQMKNGYFLEGFVRFKQDPTKEELMSIPYIGFRGDFGNLSAVEKPIYDSKDGSSYYHEANSDAKDQLDGDGLQFYALKNNFTALTTESNPWTIIKAVKEGVENIEDIESSEITETIFAGTFAKQDDDSHYYIHRHANGEPYAAISPNGDGNRDYVQFQGTFLRNAKNLVAEVLDKEGNVVWTSEVTEQVVKNYNNDLASTLGSTRFEKTRWDGKDKDGKVVANGTYTYRVRYTPISSGAKEQHTDFDVIVDNTTPEVATSATFSTEDRRLTLASKPKTSQPVYRERIAYTYMDEDLPTTEYISPNEDGTFTLPEEAETMEGATVPLKMSDFTYVVEDMAGNITYTPVTKLLEGHS
Q: What does the source list for B1?
A: Kd [2]: 26 nM; koff [2]: 0.005 s⁻¹; kon [2]: 195000 M⁻¹ s⁻¹; Kd [3]: 191 nM; koff [3]: 0.0118 s⁻¹; kon [3]: 61700 M⁻¹ s⁻¹; Kd [4]: 234 nM; koff [4]: 0.0205 s⁻¹; kon [4]: 88000 M⁻¹ s⁻¹; Kd [5]: 240 nM; koff [5]: 0.0085 s⁻¹; kon [5]: 35200 M⁻¹ s⁻¹; Kd [6]: 162 nM; koff [6]: 0.0178 s⁻¹; kon [6]: 111000 M⁻¹ s⁻¹; Kd [7]: 32.5 nM; koff [7]: 0.00583 s⁻¹; kon [7]: 180000 M⁻¹ s⁻¹; Kd [8]: 217 nM; koff [8]: 0.0176 s⁻¹; kon [8]: 81200 M⁻¹ s⁻¹; Kd [9]: 25.6 nM; koff [9]: 0.00405 s⁻¹; kon [9]: 158000 M⁻¹ s⁻¹

B2: recombinant human C5a, N-ter hexa-histidine tagged (rhC5a) (natural protein, UniProt P01031 678-751, looked up)
chain: TLQKKIEEIAAKYKHSVVKKCCYDGACVNNDETCEQRAARISLGPRCIKAFTECCVVASQLRANISHKDMQLGR
modifications: β-mercaptoethanol added to C27 in the refolding process
notes: numbers count on: the mature C5a (1-74); His-tagged form immobilised on the NTA chip in SPR; also called full length rhC5a; not shown: His6, N-terminal, kept
Q: How did the Kd [10] turn out when B2 was run?
A: 30.8 nM

Q: What about the dH [10] of the same molecule?
A: -9.4 kcal/mol

Q: And the Kd [11]?
A: 140 nM

Q: What about the koff [11] of the same molecule?
A: 0.0054 s⁻¹

Q: And the kon [11]?
A: 39200 M⁻¹ s⁻¹

Q: And the Kd [12]?
A: 34 nM

Q: What about the koff [12] of the same molecule?
A: 0.0044 s⁻¹

Q: And the kon [12]?
A: 131000 M⁻¹ s⁻¹

Q: What about the Kd [13] of the same molecule?
A: 466 nM

Q: And the koff [13]?
A: 0.0091 s⁻¹

Q: What about the kon [13] of the same molecule?
A: 19500 M⁻¹ s⁻¹

Q: And the Kd [14]?
A: 256 nM

Q: What about the koff [14] of the same molecule?
A: 0.00651 s⁻¹

Q: What about the kon [14] of the same molecule?
A: 25600 M⁻¹ s⁻¹

Q: What about the Kd [15] of the same molecule?
A: 63.5 nM

Q: And the koff [15]?
A: 0.00431 s⁻¹

Q: What about the kon [15] of the same molecule?
A: 68500 M⁻¹ s⁻¹

B3: His-tagless form of rhC5a (rhC5a-HT) (natural protein, human, UniProt P01031 678-751, looked up)
chain: TLQKKIEEIAAKYKHSVVKKCCYDGACVNNDETCEQRAARISLGPRCIKAFTECCVVASQLRANISHKDMQLGR
modifications: β-mercaptoethanol added to C27 in the refolding process
notes: numbers count on: the mature C5a (1-74); also called rhC5a-HT(sol); tag-less form rhC5a; source: recombinant rhC5a (pProExHTb) treated with TEV protease (Sigma Merck) to remove the His tag; not shown: His6, N-terminal, cleaved
Q: Which Kd [16] does the source give for B3 here?
A: 11.1 nM
